ChEMBL document CHEMBL1268867, “ATPases as drug targets: insights from heat shock proteins 70 and 90” (J Med Chem, 2010)

Tests used:
[1] = substrate: Nc1ncnc2c1ncn2[C@@H]1O[C@H](COP(=O)(O)OP(=O)(O)OP(=O)(O)O)[C@@H](O)[C@H]1O; assay: Binding affinity to aurora B
[2] = substrate: Nc1ncnc2c1ncn2[C@@H]1O[C@H](COP(=O)(O)OP(=O)(O)OP(=O)(O)O)[C@@H](O)[C@H]1O; assay: Binding affinity to CHK1
[3] = substrate: Nc1ncnc2c1ncn2[C@@H]1O[C@H](COP(=O)(O)OP(=O)(O)OP(=O)(O)O)[C@@H](O)[C@H]1O; assay: Binding affinity to Akt2

B1: Aurora kinase B (Homo sapiens), Q96GD4 (protein)
chain: MAQKENSYPWPYGRQTAPSGLSTLPQRVLRKEPVTPSALVLMSRSNVQPTAAPGQKVMENSSGTPDILTRHFTIDDFEIGRPLGKGKFGNVYLAREKKSHFIVALKVLFKSQIEKEGVEHQLRREIEIQAHLHHPNILRLYNYFYDRRRIYLILEYAPRGELYKELQKSCTFDEQRTATIMEELADALMYCHGKKVIHRDIKPENLLLGLKGELKIADFGWSVHAPSLRRKTMCGTLDYLPPEMIEGRMHNEKVDLWCIGVLCYELLVGNPPFESASHNETYRRIVKVDLKFPASVPMGAQDLISKLLRHNPSERLPLAQVSAHPWVRANSRRVLPPSALQSVA
Q: How did the Km [1] turn out when B1 was run?
A: The Km was 34 µM.

B2: Serine/threonine-protein kinase Chk1 (Homo sapiens), O14757 (protein)
chain: MAVPFVEDWDLVQTLGEGAYGEVQLAVNRVTEEAVAVKIVDMKRAVDCPENIKKEICINKMLNHENVVKFYGHRREGNIQYLFLEYCSGGELFDRIEPDIGMPEPDAQRFFHQLMAGVVYLHGIGITHRDIKPENLLLDERDNLKISDFGLATVFRYNNRERLLNKMCGTLPYVAPELLKRREFHAEPVDVWSCGIVLTAMLAGELPWDQPSDSCQEYSDWKEKKTYLNPWKKIDSAPLALLHKILVENPSARITIPDIKKDRWYNKPLKKGAKRPRVTSGGVSESPSGFSKHIQSNLDFSPVNSASSEENVKYSSSQPEPRTGLSLWDTSPSYIDKLVQGISFSQPTCPDHMLLNSQLLGTPGSSQNPWQRLVKRMTRFFTKLDADKSYQCLKETCEKLGYQWKKSCMNQVTISTTDRRNNKLIFKVNLLEMDDKILVDFRLSKGDGLEFKRHFLKIKGKLIDIVSSQKIWLPAT
Q: With B2 as the protein, how does the Km [2] read?
A: Its Km is 1.4 µM.

B3: RAC-beta serine/threonine-protein kinase (Homo sapiens), P31751 (protein)
chain: MNEVSVIKEGWLHKRGEYIKTWRPRYFLLKSDGSFIGYKERPEAPDQTLPPLNNFSVAECQLMKTERPRPNTFVIRCLQWTTVIERTFHVDSPDEREEWMRAIQMVANSLKQRAPGEDPMDYKCGSPSDSSTTEEMEVAVSKARAKVTMNDFDYLKLLGKGTFGKVILVREKATGRYYAMKILRKEVIIAKDEVAHTVTESRVLQNTRHPFLTALKYAFQTHDRLCFVMEYANGGELFFHLSRERVFTEERARFYGAEIVSALEYLHSRDVVYRDIKLENLMLDKDGHIKITDFGLCKEGISDGATMKTFCGTPEYLAPEVLEDNDYGRAVDWWGLGVVMYEMMCGRLPFYNQDHERLFELILMEEIRFPRTLSPEAKSLLAGLLKKDPKQRLGGGPSDAKEVMEHRFFLSINWQDVVQKKLLPPFKPQVTSEVDTRYFDDEFTAQSITITPPDRYDSLGLLELDQRTHFPQFSYSASIRE
Q: How did the Km [3] turn out when B3 was run?
A: The Km was 254 µM.
